The source of these data is patent publication EP4682166A1 (Guangzhou Enmai Biotechnology Co., Ltd, dated 2026).

As a reminder, the EC50 is the concentration needed to bring the measured effect to its halfway point. Read a high EC50 as weaker potency.

Experiment [1] deals with T1, human NMI (N-myc Interacting protein) (human, UniProt Q13287 1-307, limits assumed).
T1 construct: Immunogen and ELISA coating antigen; also called hNMI; antigen 1
T1 sequence (looked up): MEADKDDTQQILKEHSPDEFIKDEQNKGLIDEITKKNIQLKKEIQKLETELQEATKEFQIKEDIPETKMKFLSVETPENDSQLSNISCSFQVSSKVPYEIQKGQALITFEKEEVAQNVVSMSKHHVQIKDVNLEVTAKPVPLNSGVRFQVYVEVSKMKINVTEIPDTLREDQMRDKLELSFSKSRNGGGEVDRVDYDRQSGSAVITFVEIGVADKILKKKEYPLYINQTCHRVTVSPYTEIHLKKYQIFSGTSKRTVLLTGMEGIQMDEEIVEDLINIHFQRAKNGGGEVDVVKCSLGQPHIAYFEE
The experiment can be described thus: indirect ELISA, human NMI coated; supernatant 1/81.

In experiment [2] the target is T1, human NMI (N-myc Interacting protein). The experiment can be described thus: I-ELISA, hNMI coated; lower end of the group's range, tied to 94C4 by Table 17. On the technique in general: ELISA stands for enzyme-linked immunosorbent assay.
For experiment [3] the target is unchanged. Nature of the experiment: I-ELISA, hNMI coated 1 ug/mL; antibody 9.765625 ng/mL.
Experiment [4] has the same target. The experiment can be described thus: indirect ELISA, human NMI coated; supernatant 1/59049.
Experiment [5] shares this target. Nature of the experiment: I-ELISA, hNMI coated 1 ug/mL; antibody 2500 ng/mL.
Experiment [6] has the same target. The experiment can be described thus: I-ELISA, hNMI coated 1 ug/mL; antibody 78.125 ng/mL.
Experiment [7] shares this target. Nature of the experiment: I-ELISA, hNMI coated 1 ug/mL; antibody 4.8828125 ng/mL.
Experiment [8] shares this target. Nature of the experiment: indirect ELISA, human NMI coated (repeats Table 1).
The target is the same in experiment [9]. The experiment can be described thus: I-ELISA, hNMI coated 1 ug/mL; antibody 2.4414063 ng/mL.
For experiment [10] the target is unchanged. The experiment can be described thus: indirect ELISA, human NMI coated; supernatant 1/3.
Experiment [11] has the same target. Nature of the experiment: I-ELISA, hNMI coated 1 ug/mL; antibody 39.0625 ng/mL.
For experiment [12] the target is unchanged. The experiment can be described thus: indirect ELISA, human NMI coated; supernatant 1/9.
For experiment [13] the target is unchanged. Nature of the experiment: indirect ELISA, human NMI coated; supernatant 1/729.
Experiment [14] has the same target. The experiment can be described thus: indirect ELISA, human NMI coated; supernatant 1/19683.
Experiment [15] has the same target. Nature of the experiment: indirect ELISA, human NMI coated; supernatant 1/2187.
Experiment [16] shares this target. The experiment can be described thus: I-ELISA, hNMI coated 1 ug/mL; antibody 312.5 ng/mL.
For experiment [17] the target is unchanged. Nature of the experiment: I-ELISA, hNMI coated 1 ug/mL; antibody 19.53125 ng/mL.
For experiment [18] the target is unchanged. Nature of the experiment: indirect ELISA, human NMI coated; supernatant 1/6561.
Experiment [19] shares this target. The experiment can be described thus: indirect ELISA, human NMI coated; supernatant dilution series.
The target is the same in experiment [20]. The experiment can be described thus: I-ELISA, hNMI coated 1 ug/mL; antibody 156.25 ng/mL.
For experiment [21] the target is unchanged. The experiment can be described thus: indirect ELISA, human NMI coated; supernatant 1/27.
The target is the same in experiment [22]. The experiment can be described thus: I-ELISA, hNMI coated 1 ug/mL; antibody 625 ng/mL.
Experiment [23] shares this target. Nature of the experiment: indirect ELISA, human NMI coated; supernatant undiluted.
For experiment [24] the target is unchanged. Nature of the experiment: I-ELISA, hNMI coated 1 ug/mL; antibody 1250 ng/mL.
For experiment [25] the target is unchanged. Nature of the experiment: indirect ELISA, human NMI coated; supernatant 1/243.
The target is the same in experiment [26]. The experiment can be described thus: I-ELISA, hNMI coated 1 ug/mL; antibody 1.2207031 ng/mL.
The target is the same in experiment [27]. The experiment can be described thus: indirect ELISA, human NMI coated; supernatant dilution series. This is another data set of the same source.
For experiment [28] the target is unchanged. The experiment can be described thus: indirect ELISA, human NMI coated (repeats Table 3).
The target is the same in experiment [29]. The experiment can be described thus: sandwich ELISA; coating antibody 2.5 ug/mL, detection 94C4-biotin 0.5 ug/mL.
Experiment [30] shares this target. Nature of the experiment: I-ELISA, hNMI coated; upper end of the group's range, tied to 98G10 by Table 17.

B1: 94C4 (antibody, V domains shown)
VH: QSLEESGGGLVQPEGSLTLTCKASGFDFSSNAMCWVRQAPGKGLEWIACISSASSGSSGSTYYASWAKGRFTISKTSSTTVTLQMTSLTAADMATYFCARDGYDLWGPGTLVTVSS
VL: QVLTQTPSSVSAAVGGTVTISCQSSPSVYNNYLSWFQQKPGQSPKLLIYRVSTLASGVPSRFSGSGSGTQFTLTISGVQCDDAATYYCAGGYDSASDTYVFGGGTEVVVK
notes: Rabbit monoclonal antibody; also called 94C4-1; 94C4-1-biotin (biotin-labelled form)
Turning to B1, the “ELISA OD” value in [1] is 3.43 OD; in experiment [4], 0.585 OD; in [10], 3.5 OD; in experiment [12], 3.58 OD; in experiment [13], 2.98 OD; in experiment [14] it was 1.28 OD. Moreover, the “ELISA OD” value in [15] amounted to 2.48 OD; in experiment [18], 2.15 OD; in experiment [21] it was 3.47 OD; in experiment [23], 3.46 OD; in experiment [25], 3.29 OD. Also, the 50% effective concentration (EC50) worked out at 30 ng/mL in [2], 0.189 ng/mL in experiment [8] and 0.189 ng/mL in experiment [19]. Also, the OD450 in [3] was found to be 0.482 OD450; in experiment [5] it was 2.17 OD450; in experiment [6] it was 1.64 OD450; in [7], 0.262 OD450; in experiment [9], 0.142 OD450; in experiment [11], 1.22 OD450. For the same molecule, the OD450 in [16] amounted to 2.1 OD450; in experiment [17], 0.833 OD450; in experiment [20], 1.93 OD450; in experiment [22] it was 2.19 OD450; in [24], 2.19 OD450; in [26], 0.092 OD450.

B2: 240B10-1 (antibody, V domains shown)
VH: QSLEESGGRLVTPGGSLTLTCTVSGIDLSSYTMGWVRQAPGKGLEYIGIISGGGRTYYASWAKGRFTISKTSSTTVDLKVTSLTTEDTATYFCARIYTLWGQGTLVTVSS
VL: QVLTQTLASVSAAVGGTVTINCQSSQSVYNNDYLAWFQQKSGQPPKQLIHSASKLASGVPSRFKGSGSGTQFTLTINDVQCDDAATYYCLGGYDCYSADCNVFGGGTEVVVK
notes: Rabbit monoclonal antibody; also called 240B10-1-biotin (biotin-labelled form)
For B2, the OD450 in experiment [3] came to 0.333 OD450; in experiment [5] it was 2.15 OD450; in experiment [6], 1.46 OD450; in experiment [7], 0.163 OD450; in [9] it was 0.105 OD450; in experiment [11] it was 0.996 OD450. The OD450 was determined as 2.19 OD450 in experiment [16]; 0.573 OD450 in experiment [17]; 1.85 OD450 in experiment [20]; 2.2 OD450 in experiment [22]; 2.13 OD450 in [24]; 0.077 OD450 in experiment [26]. Further, the concentration giving a half-maximal response (EC50) in experiment [27] and in [28] was 2.6 ng/mL each time. In addition, in experiment [29], the “detection limit (sensitivity)” value amounted to 60 pg/mL.

B3: 98G10 (antibody, V domains shown)
VH: QEQLEESGGDLVKPEGSLTLTCTASGFSFSASYWICWVRQAPGKGLEWIACIYGGSSGSAYYASWAKGRFTISKTSSTTVTLQMTSLTAADTATYFCARAGYYNYGSAGDIYPSSFKLWGPGTLVTVSS
VL: DIVMTQTPASVEAAVGGTVTINCQASQSISTALAWYQQKPGQPPKLLIYTASKVASGVPSRFSGSGSGTQFTLTISDLECADAATYYCQNYYYSSSSITFGGGTEVVVK
notes: Rabbit monoclonal antibody; also called 98G10-1; 98G10-1-biotin (biotin-labelled form)
With B3, the “ELISA OD” value in experiment [1] was 3.29 OD; in experiment [4] it was 0.237 OD; in [10], 3.45 OD; in [12], 3.39 OD; in experiment [13], 2.48 OD; in experiment [14] it was 0.528 OD. The “ELISA OD” value was 1.72 OD in [15]; 1.07 OD in experiment [18]; 3.32 OD in experiment [21]; 3.45 OD in experiment [23]; 2.97 OD in [25]. The OD450 worked out at 0.217 OD450 in [3]; 2.17 OD450 in [5]; 1.18 OD450 in [6]; 0.115 OD450 in experiment [7]; 0.081 OD450 in experiment [9]; 0.67 OD450 in experiment [11]. The OD450 in experiment [16] came to 1.97 OD450; in experiment [17], 0.41 OD450; in experiment [20], 1.71 OD450; in experiment [22], 2.08 OD450; in experiment [24], 2.15 OD450; in experiment [26], 0.065 OD450. Also, the EC50 in experiment [8] was 1.22 ng/mL; in experiment [30], 70 ng/mL; in [19], 1.22 ng/mL. The “detection limit (sensitivity)” value in experiment [29] came to 60 pg/mL.
